# Test results from patent US6001988, “High affinity nucleic acid ligands to lectins” (NeXstar Pharmaceuticals, Inc.).
# T1: wheat germ agglutinin (WGA) (Triticum vulgare, UniProt P10968 P10968:27-197)
# T1 sequence: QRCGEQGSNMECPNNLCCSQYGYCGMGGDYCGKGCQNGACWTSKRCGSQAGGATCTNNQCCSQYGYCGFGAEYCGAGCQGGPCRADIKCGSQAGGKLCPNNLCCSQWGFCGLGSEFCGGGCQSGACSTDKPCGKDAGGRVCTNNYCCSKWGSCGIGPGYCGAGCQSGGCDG
# T2: E-selectin (ES-Rg) (Homo sapiens, UniProt P16581 P16581:22-556)
# T2 chain: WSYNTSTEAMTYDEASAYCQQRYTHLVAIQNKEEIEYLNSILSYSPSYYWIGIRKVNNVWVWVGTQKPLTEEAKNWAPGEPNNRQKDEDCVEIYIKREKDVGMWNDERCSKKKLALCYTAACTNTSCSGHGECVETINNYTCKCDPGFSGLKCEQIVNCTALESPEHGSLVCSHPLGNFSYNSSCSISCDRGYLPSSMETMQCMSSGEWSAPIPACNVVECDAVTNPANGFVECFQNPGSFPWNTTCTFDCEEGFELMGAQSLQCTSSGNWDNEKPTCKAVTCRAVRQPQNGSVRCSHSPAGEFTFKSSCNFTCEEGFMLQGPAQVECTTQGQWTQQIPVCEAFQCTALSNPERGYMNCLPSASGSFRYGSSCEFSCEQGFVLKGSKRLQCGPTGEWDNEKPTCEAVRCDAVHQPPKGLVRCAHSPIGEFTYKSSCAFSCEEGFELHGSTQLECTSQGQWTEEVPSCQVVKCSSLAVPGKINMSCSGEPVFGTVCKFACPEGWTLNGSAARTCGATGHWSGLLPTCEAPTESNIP
# T3: P-selectin (PS-Rg) (Homo sapiens, UniProt P16109 P16109:42-321)
# T3 chain: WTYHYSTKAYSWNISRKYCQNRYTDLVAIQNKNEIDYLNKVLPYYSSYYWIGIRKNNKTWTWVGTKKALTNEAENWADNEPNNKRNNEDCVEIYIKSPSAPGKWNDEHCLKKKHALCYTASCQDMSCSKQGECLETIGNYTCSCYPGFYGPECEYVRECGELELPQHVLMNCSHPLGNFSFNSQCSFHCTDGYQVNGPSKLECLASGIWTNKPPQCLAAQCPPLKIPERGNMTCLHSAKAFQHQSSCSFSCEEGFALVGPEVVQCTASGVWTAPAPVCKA
# Biological target: T1, wheat germ agglutinin (WGA)
# Experiment: filter; HBSS, room temp
# Details: tags: free lectin, E Y Laboratories; label: 32P
# Procedure: (§1) The specifically eluted fraction was processed for use in the following round. Fractions eluted from immobilized WGA were heated at 90° C. for 5 minutes in 1% SDS, 2% β-mercaptoethanol and extracted with phenol/chloroform. RNA was reverse transcribed into cDNA by AMV reverse transcriptase at 48° C. for 60 min in 50 mM Tris-Cl pH (8.3), 60 mM NaCl, 6 mM Mg(OAc)_2, 10 mM DTT, 100 pmol DNA primer, 0.4 mM each of dNTPs, and 0.4 unit/µl AMV RT. […] C) Nitrocellulose Filter Partitioning As described in SELEX Patent Applications, the nitrocellulose filter partitioning method was used to determine the affinity of RNA ligands for WGA and for other proteins. Filter discs (nitrocellulose/cellulose acetate mixed matrix, 0.45 µm pore size, Millipore; or pure nitrocellulose, 0.45 µm pore size, Bio-Rad) were placed on a vacuum manifold and washed with 4 ml of HBSS buffer under vacuum. Reaction mixtures, containing ^32P labeled RNA pools and unlabeled WGA, were incubated in HBSS for 10 min at room temperature, filtered, and then immediately washed with 4 ml HBSS. The filters were air-dried and counted in a Beckman LS6500 liquid scintillation counter without fluor. WGA is a homodimer, molecular weight 43.2 kD, with 4 GlcNAc binding sites per dimer. For affinity calculations, we assume one RNA ligand binding site per monomer (two per dimer). The monomer concentration is defined as 2 times the dimer concentration. The equilibrium dissociation constant, K_d, for an RNA pool or specific ligand that binds monophasically is given by the equation $$K_d=[P_f][R_f]/[RP]$$
# The dissociation constants for representative members of families 1–9 and orphan ligands were determined by nitrocellulose filter binding experiments and are listed in Table III. These calculations assume one RNA ligand binding site per WGA monomer.
row,Binder,Kd [µM]
1,"6.27 (ssRNA, 2'-NH2 all C and U) RNA: GGGAAAAGCGAAUCAUACACAAGAUGCCGGUGGAAAGGCGGGUAGGUGACCCGAGGAUUCCUACCAAGCCAUGCUCCGCCAGAGACCAACCGAGAA",0.056
2,"11.2 (ssRNA, 2'-NH2 all C and U) RNA: GGGAAAAGCGAAUCAUACACAAGACCAACGUACAUCGCGAGCUGGUGGAGAGUUCAUGAGGGUGUUACGGGGUGCUCCGCCAGAGACCAACCGAGAA",0.062
3,"6.3 (ssRNA, 2'-NH2 all C and U) RNA: GGGAAAAGCGAAUCAUACACAAGAGAUACAGCGCGGGUCUAAAGACCUUGCCCCUAGGAUGCAACGGGGUGGCUCCGCCAGAGACCAACCGAGAA",0.12
4,"11.29 (ssRNA, 2'-NH2 all C and U) RNA: GGGAAAAGCGAAUCAUACACAAGAACUGAGUAAGGUCUGGCGUGGCAUUAGGUUAGUGGGAGGCUUGGAGUAGGCUCCGCCAGAGACCAACCGAGAA",0.032
5,"6.5 (ssRNA, 2'-NH2 all C and U) RNA: GGGAAAAGCGAAUCAUACACAAGAGUCCCUAGGGAUGCAACGGGCAGCAUUCGCAUAGGAGUAAUCGGAGGUCGCUCCGCCAGAGACCAACCGAGAA",0.678
6,"6.19 (ssRNA, 2'-NH2 all C and U) RNA: GGGAAAAGCGAAUCAUACACAAGAAUCGAACCUAGGGAUGCAACGGUGAAGGUUGUGAGGAUUCGCCAUUAGGCGCUCCGCCAGAGACCAACCGAGAA",0.074

# Same assay, conditions: tags: free lectin, E Y Laboratories; label: 32P; hairpin
row,Binder,Kd [µM]
1,"11.12 (ssRNA, 2'-NH2 all C and U) RNA: GGGAAAAGCGAAUCAUACACAAGACGGCUGUGUGUGGUAGCGUCAUAGUAGGAGUCGUCACGAACCAAGGCGCUCCGCCAGAGACCAACCGAGAA",0.0152
2,"11.19 (ssRNA, 2'-NH2 all C and U) RNA: GGGAAAAGCGAAUCAUACACAAGAAAGGGAUGGGAUUGGGACGAGCGGCCAAGACUCGGCGGGAACGAAGGGUGCUCCGCCAGAGACCAACCGAGAA",0.022
3,"11.26 (ssRNA, 2'-NH2 all C and U) RNA: GGGAAAAGCGAAUCAUACACAAGAUUGGGCAGGCAGAGCGAGACCGGGGGCUCGGCGGGAACGGAACAGGAAUGCUCCGCCAGAGACCAACCGAGAA",0.038
4,"11.34 (ssRNA, 2'-NH2 all C and U) RNA: GGGAAAAGCGAAUCAUACACAAGACUCGGCGGGAACGUGAAGUGGGUAGGUAGCUGAAGACGGUCUGGGCGCCAGCUCCGCCAGAGACCAACCGAGAA",0.092
5,"6.9 (ssRNA, 2'-NH2 all C and U) RNA: GGGAAAAGCGAAUCAUACACAAGACUCGGCGGGAACGAAGUGUGUGAGUAACGAUCACUUGGUACUAAAAGCCCGCUCCGCCAGAGACCAACCGAGAA",0.396
6,"11.27 (ssRNA, 2'-NH2 all C and U) RNA: GGGAAAAGCGAAUCAUACACAAGACGAUGCGAGGCAAGAAAUGGAGUCGUUACGAACCCUCUUGCAGUGCGCGGCUCCGCCAGAGACCAACCGAGAA",0.03
7,"11.32 (ssRNA, 2'-NH2 all C and U) RNA: GGGAAAAGCGAAUCAUACACAAGACGUGCGGAGCAAAUAGGGGAUCAUGGAGUCGUACGAACCGUUAUCGCGCUCCGCCAGAGACCAACCGAGAA",0.274
8,"11.6 (ssRNA, 2'-NH2 all C and U) RNA: GGGAAAAGCGAAUCAUACACAAGACUGGGGAGCAGGAUAUGAGAUGUGCGGGGCAAUGGAGUCGUGACGAACCGCUCCGCCAGAGACCAACCGAGAA",0.702
9,"6.23 (ssRNA, 2'-NH2 all C and U) RNA: GGGAAAAGCGAAUCAUACACAAGACUCGGCGGGAAUCGAAAGUGUACUGAAUUAGAACGGUGGGCCUGCUCAUCGUGCUCCGCCAGAGACCAACCGAGAA",0.824
10,"11.15 (ssRNA, 2'-NH2 all C and U) RNA: GGGAAAAGCGAAUCAUACACAAGACUCGGCGGGAACGAAAGUGUCAUGGUAGCAAGUCCAAUGGUGGACUCUGCUCCGCCAGAGACCAACCGAGAA",0.054
11,"11.8 (ssRNA, 2'-NH2 all C and U) RNA: GGGAAAAGCGAAUCAUACACAAGAAUGGUUGGCCUGGGCGCAGGCUUCGAAGACUCGGCGGGAACGGGAAUGGCUCCGCCAGAGACCAACCGAGAA",0.0092
12,"11.4 (ssRNA, 2'-NH2 all C and U) RNA: GGGAAAAGCGAAUCAUACACAAGACAGGCACUGAAAACUCGGCGGGAACGAAAGUAGUGCCGACUCAGACGCGUGCUCCGCCAGAGACCAACCGAGAA",0.032
13,"11.5 (ssRNA, 2'-NH2 all C and U) RNA: GGGAAAAGCGAAUCAUACACAAGAACAAGGAUCGAUGGCGAGCCGGGGAGGGCUCGGCGGGAACGAAAUCUGCUCCGCCAGAGACCAACCGAGAA",0.044

# Same assay, conditions: tags: free lectin, E Y Laboratories; label: 32P; possible G-quartet (speculative)
row,Binder,Kd [µM]
1,"11.28 (ssRNA, 2'-NH2 all C and U) RNA: GGGAAAAGCGAAUCAUACACAAGAGUUGGUGCGAGCUGGGGCGGCGAGAAGGUAGGCGGUCCGAGUGUUCGAAUGCUCCGCCAGAGACCAACCGAGAA",0.0092

# Biological target: T2, E-selectin (ES-Rg)
# Experiment: filter; room temp, Ca/Mg buffer
# Details: tags: extracellular domain fused to human IgG1 Fc (provided by A. Varki); chain copies: 2 (dimeric Fc chimera, inferred)
# Procedure: as §1, with “RNA” for “The specifically eluted fraction was processed for use in the following round. Fractions eluted from immobilized WGA were heated at 90° C. for 5 minutes in 1% SDS, 2% β-mercaptoethanol and extracted with phenol/chloroform. RNA”
# (§2) The affinity of representative cloned ligands for LS-Rg, ES-Rg, PS-Rg, CD22β-Rg and WGA was determined by nitrocellulose partitioning and the results shown in Table XIV. The ligands are highly specific for L-selectin.
# (§3) *Kds were determined at room temperature.
row,Binder,Kd [µM]
1,233 (ssDNA) DNA: CTACCTACGATCTGACTAGCCACGACAGAGAACAAGGCGTTAGACGTTATCCGACCACGGCTTACTCTCATGTAGTTCC,0.039

# Biological target: T3, P-selectin (PS-Rg)
# Experiment: filter; room temp, Ca/Mg buffer
# Details: tags: lectin, EGF and first two CRD domains fused to human IgG1 Fc (provided by A. Varki); chain copies: 2 (dimeric Fc chimera, inferred)
# Procedure: as §1, with “RNA” for “The specifically eluted fraction was processed for use in the following round. Fractions eluted from immobilized WGA were heated at 90° C. for 5 minutes in 1% SDS, 2% β-mercaptoethanol and extracted with phenol/chloroform. RNA”
# as §2, §3
row,Binder,Kd [µM]
1,233 (ssDNA) DNA: CTACCTACGATCTGACTAGCCACGACAGAGAACAAGGCGTTAGACGTTATCCGACCACGGCTTACTCTCATGTAGTTCC,0.42
